Measurements taken from the DeepSol protein solubility set.

Assay: soluble on expression in E. coli; label from the status in PepcDB or PDB records

Sequence | soluble on expression in E. coli
MSLQSYADALSAKGYRSFGFDTDMEMDMDMGCTTMRRIEKRKGGDLADSPVDEKAEADVEVTNEISAPYEVPQFPIEQIEKKLQIQRHLNEKQATGPRPVATAAVLATNRESSSSTEGRESAVTMERNDADINFQRVSISGEDTSGVPLEDLERASTLLIEALRLRSHYMAMSDQSFPSTTARFLKTVKLKDRINNLPVKEVSESADVHLRHSPMKITNPWNVEFPNDEDFKIKPLNGVFHIYENDDESSEIKYEYPDMSQFVNDMQVMCNMIADGPLKSFCYRRLCYLSSKYQMHVLLNELRELAAQKAVPHRDFYNTRKVDTHIHAASCMNQKHLLRFIKKTLKNNANEVVTVTNGQQMTLAQVFQSMNLTTYDLTVDMLDVHADRNTFHRFDKFNSKYNPIGESRLREVFLKTDNYLNGKYFAQIIKEVAFDLEESKYQNAELRLSIYGKSPDEWYKLAKWAIDNDVYSSNIRWLIQIPRLFDIFKSNKMMKSFQEILNNIFLPLFEATARPSKHPELHRFLQYVIGFDSVDDESKPENPLFDNDVPRPEEWTYEENPPYAYYIYYMYANMTVLNKFRQSRNMNTFVLRPHCGEAGPVQHLVCGFLMAENISHGLLLRKVPVLQYLYYLTQIGIAMSPLSNNSLFLNYHRNPLPEYLARGLIISLSTDDPLQFHFTKEPLMEEYSIAAQVWKLSSCDMCELARNSVMMSGFPHAIKQQWLGPIYYEDGIMGNDITRTNVPEIRVAYRYETLLDELSNIFKVNQTCSIADMNATEGHHHHHH | soluble
MSLQVEFRECDPGNLWIWFEFAEPPVPAELEYLKEVLESWYVLGKLGGFNAERLVAQEAEVDLSYLEYPSDSAPLTSLMHNMGSLEEKGNWARCWFDLGTADALALDVLINALRTLSLEYINLSRVIIGGQNEDWPTPDPEETDVYDDLNGYLRDHWGEEGEGHHHHHH | soluble
MSLRALFDALTPKQARIAAILKREGGLQLTITCREYYHLRDMLEQYKVDYICIGRYGETTEEKLVEGLKRQLQMVEIMRGLDGVVSFPSPDAVRTAFGLGKKSVVLNDTPHAYHANSLTIPLSDALIAPSAIPQDAWRRYCPKKVMTFDGVFEYMWTSRHTPNLESVRKLGLEPGSYVVFRPEEAKAAYYQWNNVQLRAKLVELVKEMGYVVVNIPRYPDQVIEGAINLIKAVDHLDLAYYAAAVITGGLTMSTEAALLGTPAVSYFPGDVYIDRYLERAGAPLLRCSSMDECIHVVKKALSMGRAPPPKMEDPLKAIVAAVQEIFGGEGHHHHHH | soluble
MSLRDQFQLAIRVADLLQHITQMKRGQGYGFKEEYEALPEGQTASWDTAKEDENRNKNRYGNIISYDHSRVRLLVLDGDPHSDYINANYIDGYHRPRHYIATQGPMQETVKDFWRMIWQENSASIVMVTNLVEVGRVKCVRYWPDDTEVYGDIKVTLIETEPLAEYVIRTFTVQKKGYHEIRELRLFHFTSWPDHGVPCYATGLLGFVRQVKFLNPPEAGPIVVHCSAGAGRTGCFIAIDTMLDMAENERVVDIFNCVRELRAQRVNLVQTEEQYVFVHDAILEACLCGNTAIPVCEFRSLYYNISRLDPQTNSSQIKDEFQTLNIVTPRVRPEDCSIGLLPRNHDKNRSMDVLPLDRCLPFLISVDGESSNYINAALMDSHKQPAAFVVTQHPLPNTVADFWRLVFDYNCSSVVMLNEMDTAQFCMQYWPEKTSGCYGPIQVEFVSADIDEDIIHRIFRICNMARPQDGYRIVQHLQYIGWPAYRDTPPSKRSLLKVVRRLEKWQEQYDGREGRTVVHCLNGGGRSGTFCAICSVCEMIQQQNIIDVFHIVKTLRNNKSNMVETLEQYKFVYEVALEYLSSFEGHHHHHH | soluble
MSLRDSRYYCRLFSPAAVRGGIRRISAIYLNPSAFMSSLPITDRKIRFGLVGCGRISKNHIGAIAQHGDRAELVEICDTNPEALQAAEAATGARPFSSLSDMLAQGNADALVLATPSGLHPWQAIEVAQAGRHVVSEKPMATRWEDGKRMVKACDEAGVRLFVVKQNRRNATLQLVKKAIEQGRFGRIYMVTVNVFWTRPQEYYDAARWRGKWEWDGGAFMNQASHYVDLLDWLVGPVESVYAYTATLARRIEAEDTGVAALRWRHGAMGSINVTMLTYPQNLEGSITILGEKGTVRVGGVAVNRIDEWKFAEPHPDDDKIREANYETTSVYGFGHPLYYDNVINCLRGDCEPETDGREGLQSLALLTAIYRSARDGVRIPLPLDEGHHHHHH | soluble
MSLRDYRYSDAHVHYVDFFQESEGMPRLLEAMDKGRVDHVMLSGVAVAKKWHKDEPKRPRYYAGDDAGAYWYSATDVIVAAAVKSLPAEQRRRVHPFLTGFNPTDKNADAHIRRMLELDPGLWQGIGEIFTRHDDLTALTYGDVPRANNEALARVYHLAAEFDLPVLLHANVTSKRERNPLYLAEIEEPLRNHPHVRFIWAHAGTSMEIHRHQKKLDFLLPTLRRLLQRYPNLYIDLSWSVLRPYLLDEQGKPDPQWLALVERFPQRFMLGSDVVGQFDSLPELMASFDPFLDALPEQVARQVARDNFLAVLPREGHHHHHH | soluble
MSLREIVLINITGVDRPGLTAAITGVLAQGGVNILDIGQAVIHDTLSFGILVEIPDTVQGSSVLKDILFTAYKLDQQVRFTAVSEEGYQHWVEGQGKARHIVTLLTRKVTAEQLQCVSAITAKYGLNIDQIDRLSGRMPLDTPADKGKGCIEFTVRGEPADPKAMQAEFLAVAQELNVDIAFQQDSLFRRNRRLAVFDMDSTLIEAEVIDELAKAAGVGEQVAEITERAMRGELDFSESFKERLALLKGLDVGVLDEIGASLRLTEGAETLFSELKRLGYKTAILSGGFTYFAKQLQAKLGIDYVYANELEVVDGKVTGVAVEPIVNAQRKADLLRELAHKEGLSLEQTIAVGDGANDLPMLAIAGLGVAFRAKPLVKQSAKQAISTLGLDGVLYLLGEGHHHHHH | soluble
MSLREIVWVHSQRIAPYKTLILNELRYYPLELDPTPFNALVFTSKNAVFSLLETLNNSPKLKTLQNIPAYALSEPTAKTLQDHHFKVAFIGKKAHGKEFAQEILPLLKGKSVLYLRAKEIASSLDTILLEHGIDFKQAVVYENKLKHLTLSEQNALKPKEKSVLIFTAISHAKAFLHYFEFLENYTAISIGNTTALYLQEQGIPSYIAKKPSLEACLELALNLKSEGHHHHHH | soluble
MSLRESMRIELELQTDNFTVIPYNHQYYLASAIYNKIHSANPAYAKRLHNYQKFKFFTFSLLQIRKRVIRKEGIETIDGKAYLYISSPNNEFIENFVAGLLEDGKLRVGNVEFFVRKAKILPIPKKFNILKTISPIYLKTMIETEDGLKTYDLLPNNSKFYENLKNNLKKKYEAFYNEKCDMNFEFEVLKFRPKRMRIKNDIYCRCSEMVFKVWGDYDLIKFGYECGFGEKNSMGFGMVVNVEDKNQKNKKLKTKIEGHHHHHH | soluble
MSLREVALKILIVEDDTDAREWLSTIISNHFPEVWSAGDGEEGERLFGLHAPDVIITDIRMPKLGGLEMLDRIKAGGAKPYVIVISAFSEMKYFIKAIELGVHLFLPKPIEPGRLMETLEDFRHIKLAKLKKEEAEQERIRSLLFESKKELIRLIAHHWRQPLNVISITAENIKLNLDERGIEGHEDTHHLADKIVTESLRLSRVISRFSDTFFAKEEVGRHFGLHTVLKDAFEIAEPLAQEARCLLEIEGNDEVIFGLKGMLVQILLEVFKAIMALCDQVNRGELLVRVVCESFEGEVKIWMADVACAGRCWSEVMFEPFAGGFEEKRRDMELFVAQHLLRRYFDGMIKIVDRGEIRGLEITLSRNPKKFNSPLAEGHHHHHH | soluble
MSLRFIDKLYQANLGKLTAGISPAALGTAYYSWFAQLLQSPGSMLRLAYYPLLHANDYLSNLFKYDKPRDGKDVRFHTENWSYYPWRLWAEQFLQFEDWCLQASSKVPGIPLHVKRTVTFSTRQILDALSPSNFVLTNPDLLQETIRSNGQNLIRGTELAFQDFVEKITGSPPAGVENFIPGKQVAVTEGKVVYSNHLIELIQYTPQTEKVYKEGHHHHHH | soluble
MSLRGLSTDHTTQIVNLEDNTQDLLLLLSLFKKITNVNPSKNFNVILASSLNEVGTLKVILNLYSSAHLIRINDEPILGQITLTFISELCSIEPIAAKLINSGLYSVLLESPLSVAIQQGDIKPEFSPRLHNIWSNGLLSIVLLLLSQFGIKVLPETCLFVSYFGKQIKSTIYNWGDNKLAVSSSLIKETNQLVLLQKMLNLLNYQELFIQPKNSDDQQEAVELVIGLDSEHDKKRLSAALSKFLTHPKYLNSRIIPTTLEEQQQLEDESSRLEFVKGISRDIKALQDSLFEGHHHHHH | not soluble
MSLRIKLLLRFKPPFLIPYNYPRYLYSFLLRAIELADKEVAGRIHNNKRDIKFVASKFMPIGSTKRLEQGLLVESGTVELYVGSTEDIILESLVRGLGQGVGMLHVRGQRLLSYEAELEEIPKHLSGKRFKTLSPVSVYHNNPPNGFRQWDLSPVGPPNSPFENEPKVWKELLFENLKSKYMMVYGEPYEGSFDIRVLTKKPKSRRLLVKIDERTGKPIYARVWEFDFKMWGEEELLRVAYELGIGMRNPHGFGMVEVIEGHHHHHH | soluble
MSLRIKVCGIKRVEDAVMAAYCGADAIGLVVGRKHNSDDFIDKHLAQKIVRECPPYISPVLVTELDDAEEISGLVHETGVTSVQLHSDCTVDSIISLRKTFPNIKIIKNFHVIGPGVIHAMKPFESVVDAFILDTLDLANDKVGSTGLVHDWSISRKIVKEVSRPVILAGGLTPENVGEAIRVVNPYGVDASSGLKDSNGFKDEMKVINFVHRAKNDFFKVRNLSLENEGHHHHHH | soluble
MSLRILGRASSINVRKVLWACAEFEIAFEREDWGSGFKATDSTEFLALNPNAMIPVIQDGDFTLWESNSIIRYLASRYGATAFYPGEAQARARIDQWIDWQASDLNRSWSYAFMSLVRHSPAHQDPQALAAGCAEWSRYMRILDRQLASTGAYVAGSQFTLADIPIGLSVNRWFETPFEHPHLPAVRDYYERLSERPAYHLHGRNGTEGHHHHHH | soluble
MSLRILITGNMGYIGPVVARHLRQQYPDAWLVGLDRGWFAHCLSDPRQLPEVVLDQQWFGDVRDLTAQQLSGFDGVVHLAAISNDAMGKRFEQVTDAINCRASVAVAQAAAQAGVKHFVFASSCSVYGAAADGTPRSESSAVAPLTAYAHSKIDTERALAQLETDMVITCLRFATACGASPRLRLDLVLNDFVASAVANGTVEVLSDGSPWRPLIHVRDMARAIDWALGRTPLAGGRFLAVNAGAEQWNVQIRDLAQAVGAAMPSATVSISTTAPADNRSYRVDFSLFQRLAPQHQPQQTLQSTITELRDDLLRAGFADGDFRQSSDFIRLRILQQLVDSGALAADLRAEGHHHHHH | soluble
MSLRKNESIRLIALGGVGEIGKNMYLAEVDEDLYVIDAGLMFPENEMLGIDIVIPDVSYLVQNKDRIRGIFLTHGHEDHIGALSYVLKKVSVPVYGTKLTLALAKAKMKEQDYRGKAELIEINSDSVLEFEHSSVSFFRTNHSIPDSVGICIHTSEGSIVYTGDFKFDQAAPELYKAEIGKMAGIGDNGVLCLLSDSTDAERPGYSTSEAVVQKAMAHAFYSAKGRVIAACFASDLIQIQHIFDAAEESGRKVAVAGKSIQKVYDLAVQLGYLAVKDDILIPLSELGSFRDHEVVILTAGSQGEPIEALQKMAKRTHRQVTIQEGDTVYLAAAPIRGGEVFIYKTMDMLYRAGATVITGKNSATASSHGSQEELKFMINLMKPKHFIPVHGEYKTLKSHGKLAAECGISQDSILIPEKGDVFEIKDGRIKQSGRVPAGNVLIDGIGVGDVGNIVLRDRRLLSQDGILIVVVTLNRHDKQIAAGPEIISRGFVYVRESEKLLVQAADMVKEIVHRGSQKESFDWAAVKQDMRDELNQFFYEKTKRRPMILPIIMEVKQEGHHHHHH | soluble
MSLRKVVILTLVTLFTCVEYSQAQTTEKEMTRQEKKAAQEALDKMLFQEAKEAIDNQTFVLEADRVYFKYGTSAFVSSNTNFVGLDGDKAVVQVAFNVPFSGPNGLGGITVDGNASNYKVKTDKKGNIHVSMNVMGIGISAQVNIDIPYGSNNATVDILPNFNSSHMTLSGQILPLKKANVFKGRSLEGHHHHHH | soluble
